Source: patent US20240279310A1
Where two headings read alike, the source gives them in different places.

Columns and labels:
[1] = biological target: recombinant human APRIL (Tonbo Biosciences) (human) (UniProt O75888); test: cell-based or functional assay
[2] = biological target: recombinant human BAFF (BioLegend) (human) (UniProt Q9Y275); test: cell-based or functional assay
[3] = biological target: recombinant human APRIL (Tonbo Biosciences) (human) (UniProt O75888); test: cell-based or functional assay; design: IC50 APRIL (Δ TACI 30-110-Fc) / IC50 BAFF (Δ TACI 30-110-Fc): unit not given beside the values
[4] = biological target: recombinant human BAFF (BioLegend) (human) (UniProt Q9Y275); test: cell-based or functional assay; design: IC50 APRIL (Δ TACI 30-110-Fc) / IC50 BAFF (Δ TACI 30-110-Fc): unit not given beside the values
[5] = biological target: recombinant human APRIL (Tonbo Biosciences) (human) (UniProt O75888); test: cell-based or functional assay; design: IC50 APRIL (Δ TACI 30-110) / IC50 BAFF (Δ TACI 30-110): unit not given beside the values
[6] = biological target: recombinant human BAFF (BioLegend) (human) (UniProt Q9Y275); test: cell-based or functional assay; design: IC50 APRIL (Δ TACI 30-110) / IC50 BAFF (Δ TACI 30-110): unit not given beside the values
[7] = biological target: recombinant human BAFF (BioLegend) (human) (UniProt Q9Y275)
[8] = biological target: APRIL+BAFF (15 nM APRIL+10 nM BAFF) in combination; test: cell-based or functional assay

Sequence of recombinant human APRIL (Tonbo Biosciences) (human) (O75888 105-250 limits assumed): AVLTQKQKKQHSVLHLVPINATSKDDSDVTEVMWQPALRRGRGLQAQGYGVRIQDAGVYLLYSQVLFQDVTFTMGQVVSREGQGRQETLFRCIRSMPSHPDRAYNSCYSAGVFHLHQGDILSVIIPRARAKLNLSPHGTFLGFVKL
Sequence of TACI 13-118-Fc (WT TACI 13-118, SEQ ID NO:131, fused to the Fc of SEQ ID NO: 73) (Fc fusion) (chain): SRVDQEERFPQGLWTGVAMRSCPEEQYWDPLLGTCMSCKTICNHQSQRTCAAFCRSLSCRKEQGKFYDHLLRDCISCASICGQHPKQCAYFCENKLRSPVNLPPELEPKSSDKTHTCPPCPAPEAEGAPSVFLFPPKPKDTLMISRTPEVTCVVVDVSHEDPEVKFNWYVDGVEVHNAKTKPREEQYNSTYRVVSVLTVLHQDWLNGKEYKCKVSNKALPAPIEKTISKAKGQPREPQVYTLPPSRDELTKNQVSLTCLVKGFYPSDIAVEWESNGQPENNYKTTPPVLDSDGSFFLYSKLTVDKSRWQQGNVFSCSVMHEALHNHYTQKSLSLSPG
Sequence of TACI 30-110-Fc (WT TACI 30-110, SEQ ID NO:130, fused to the Fc of SEQ ID NO: 73) (Fc fusion) (chain): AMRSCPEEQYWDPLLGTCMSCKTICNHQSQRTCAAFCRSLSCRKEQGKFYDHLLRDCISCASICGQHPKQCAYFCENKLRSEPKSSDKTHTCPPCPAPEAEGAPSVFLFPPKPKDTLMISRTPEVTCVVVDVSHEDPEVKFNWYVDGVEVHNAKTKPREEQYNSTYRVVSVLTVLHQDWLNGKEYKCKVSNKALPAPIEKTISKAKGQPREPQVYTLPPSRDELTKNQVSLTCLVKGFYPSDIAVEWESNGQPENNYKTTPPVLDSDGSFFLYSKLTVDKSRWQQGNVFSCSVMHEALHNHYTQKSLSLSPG
Sequence of Telitacicept/Tai'ai (RemeGen) (Fc fusion) (chain): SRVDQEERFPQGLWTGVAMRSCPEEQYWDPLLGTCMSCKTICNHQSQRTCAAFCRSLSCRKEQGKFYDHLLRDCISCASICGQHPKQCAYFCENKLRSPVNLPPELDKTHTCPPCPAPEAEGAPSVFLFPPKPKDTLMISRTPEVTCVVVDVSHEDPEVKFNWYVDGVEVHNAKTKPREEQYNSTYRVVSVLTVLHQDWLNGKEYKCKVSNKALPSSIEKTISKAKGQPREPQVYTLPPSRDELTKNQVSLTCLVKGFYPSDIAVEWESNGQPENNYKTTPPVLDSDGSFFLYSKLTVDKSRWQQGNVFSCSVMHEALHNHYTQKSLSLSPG

Substance | APRIL IC50 (pM) [1] [pM] | APRIL IC50 (Δ WT) [1] | BAFF IC50 (pM) [2] [pM] | BAFF IC50 (Δ WT) [2] | further results
27 TACI CRD2-Fc (TACI vTD SEQ ID NO:27, Q75E/R84Q) (Fc fusion) | 11800 | 0.96 | 1460 | 0.79 | IC50 (nM) APRIL [3]: 262 nM; IC50 APRIL (Δ TACI 30-110-Fc) [3]: 0.07; IC50 (nM) BAFF [4]: 1390 nM; IC50 BAFF (Δ TACI 30-110-Fc) [4]: 0.24
29 TACI CRD2-Fc (TACI vTD SEQ ID NO:29, K77E/A101D/Y102D) (Fc fusion) | 2910 | 0.24 | 1180 | 0.64 | IC50 (nM) APRIL [3]: 339 nM; IC50 APRIL (Δ TACI 30-110-Fc) [3]: 0.09; IC50 (nM) BAFF [4]: 1340 nM; IC50 BAFF (Δ TACI 30-110-Fc) [4]: 0.23
BAFF-R ECD (control) (receptor) | – | – | 53200 | 28.7 | –
TACI 13-118, with K77E/F78Y/Y102D, fused to the Fc of SEQ ID NO:73 (Fc fusion) | 13200 | 1.07 | 1990 | 1.07 | IC50 (nM) APRIL [5]: 848 nM; IC50 APRIL (Δ TACI 30-110) [5]: 0.2; IC50 (nM) BAFF [6]: 2050 nM; IC50 BAFF (Δ TACI 30-110) [6]: 0.46
TACI 13-118-Fc (WT TACI 13-118, SEQ ID NO:131, fused to the Fc of SEQ ID NO: 73) (Fc fusion) | – | – | 7900 | 4.26 | IC50 (nM) APRIL [5]: 7810 nM; IC50 APRIL (Δ TACI 30-110) [5]: 1.81; IC50 (nM) BAFF [6]: 8450 nM; IC50 BAFF (Δ TACI 30-110) [6]: 1.88; IC50 (nM) APRIL [3]: 9100 nM; IC50 APRIL (Δ TACI 30-110-Fc) [3]: 2.37; IC50 (nM) BAFF [4]: 7700 nM; IC50 BAFF (Δ TACI 30-110-Fc) [4]: 1.33
TACI 30-110-Fc (WT TACI 30-110, SEQ ID NO:130, fused to the Fc of SEQ ID NO: 73) (Fc fusion) | – | – | – | – | IC50 (nM) APRIL [5]: 4320 nM; IC50 APRIL (Δ TACI 30-110) [5]: 1; IC50 (nM) BAFF [6]: 4490 nM; IC50 BAFF (Δ TACI 30-110) [6]: 1; IC50 (nM) APRIL [3]: 3850 nM; IC50 APRIL (Δ TACI 30-110-Fc) [3]: 1; IC50 (nM) BAFF [4]: 5770 nM; IC50 BAFF (Δ TACI 30-110-Fc) [4]: 1
TACI vTD-Fc with the vTD of SEQ ID NO: 23 (A101D) (Fc fusion) | 8380 | 0.68 | 1830 | 0.99 | –
TACI vTD-Fc with the vTD of SEQ ID NO: 24 (K77E, R84Q) (Fc fusion) | 4260 | 0.35 | 2260 | 1.22 | –
TACI vTD-Fc with the vTD of SEQ ID NO: 25 (K77E, A101D) (Fc fusion) | 2040 | 0.17 | 1960 | 1.06 | –
TACI vTD-Fc with the vTD of SEQ ID NO: 30 (R84Q) (Fc fusion) | 566 | 0.05 | 5490 | 2.96 | IC50 (read off the curve) [7]: 0.001 µM
TACI vTD-Fc with the vTD of SEQ ID NO: 32 (K77E) (Fc fusion) | 159 | 0.01 | 1540 | 0.83 | –
TACI vTD-Fc with the vTD of SEQ ID NO: 177 (Q75E) (Fc fusion) | 1940 | 0.16 | 1460 | 0.79 | –
TACI vTD-Fc with the vTD of SEQ ID NO: 178 (Q75E, K77E) (Fc fusion) | 10700 | 0.87 | 1890 | 1.02 | –
TACI vTD-Fc with the vTD of SEQ ID NO: 179 (Q75E, F78Y) (Fc fusion) | 13400 | 1.09 | 1790 | 0.97 | –
TACI vTD-Fc with the vTD of SEQ ID NO: 180 (Q75E, A101D) (Fc fusion) | 20000 | 1.62 | 2360 | 1.27 | –
TACI vTD-Fc with the vTD of SEQ ID NO: 181 (Q75E, Y102D) (Fc fusion) | 11100 | 0.9 | 2150 | 1.16 | –
TACI vTD-Fc with the vTD of SEQ ID NO: 182 (K77E, F78Y, R84Q) (Fc fusion) | 10100 | 0.82 | 2210 | 1.19 | –
TACI vTD-Fc with the vTD of SEQ ID NO: 183 (F78Y) (Fc fusion) | 176 | 0.01 | 1640 | 0.88 | –
TACI vTD-Fc with the vTD of SEQ ID NO: 184 (F78Y, R84Q) (Fc fusion) | 2620 | 0.21 | 2260 | 1.22 | –
TACI vTD-Fc with the vTD of SEQ ID NO: 185 (F78Y, A101D) (Fc fusion) | 2020 | 0.16 | 1850 | 1 | –
TACI vTD-Fc with the vTD of SEQ ID NO: 186 (F78Y, Y102D) (Fc fusion) | 8490 | 0.69 | 1960 | 1.06 | –
TACI vTD-Fc with the vTD of SEQ ID NO: 187 (R84Q, A101D) (Fc fusion) | 11200 | 0.91 | 2350 | 1.27 | –
TACI vTD-Fc with the vTD of SEQ ID NO: 188 (R84Q, Y102D) (Fc fusion) | 12300 | 1 | 1860 | 1.01 | –
TACI vTD-Fc with the vTD of SEQ ID NO: 189 (A101D, Y102D) (Fc fusion) | 33600 | 2.72 | 1950 | 1.05 | –
TACI vTD-Fc with the vTD of SEQ ID NO: 190 (Y102D) (Fc fusion) | 11600 | 0.94 | 1860 | 1 | –
TACI vTD-Fc with the vTD of SEQ ID NO: 191 (K77E, F78Y) (Fc fusion) | 10100 | 0.82 | 1970 | 1.06 | –
TACI vTD-Fc with the vTD of SEQ ID NO: 192 (K77E, Y102D) (Fc fusion) | 891 | 0.07 | 2180 | 1.17 | –
Telitacicept/Tai'ai (RemeGen) (Fc fusion) | – | – | – | – | IC50 (pM) BAFF + APRIL [8]: 16800 pM
